The target of the test is SARS-CoV-2 Wuhan-Hu-1 NTD (SARS-CoV-2 Wuhan-Hu-1, UniProt P0DTC2). Nature of the test: BLI. Background: BLI is a label-free optical method that tracks binding on a fibre tip over time.

Experimental findings from publication PMC8986478 (Immunity, 2022) are described below.

Changes are numbered by the printed parent chain.

B1: C1554 IgG (antibody, V domains shown)
VH: QVQLVQSGAEVKKPGASVKVSCKVSGYTLPEISIHWVREAPGKGLEWMGGFDPEDGETIYSQRFQGRVTMTEDTSTDTAYMELSSLRSEDTAVYYCAASSPFSGGWFHPWGQGTLVTVSS
VL: QSALTQPASVSGSPGQSITISCTETSSDVGNYNLVSWYQQHPGKAPKLVIYEGTKRPSGVSNRFSASKSGNTASLTISELQAEDEANYYCCSYARSGVFGGGTKLTVL
Consider B1, for which the binding result is “binds”.

B2: C1520 IgG (antibody, V domains shown)
VH: EVQLVESGGGLVQPGGSLRLACVASGFTFSIYEMNWVRQAPGKGLEWVSYITTSGHARYNADSVKGRFTISRDNSKNSFYLQMNSLRAEDTAIYYCARPQYHYYDTSTYHSYGFDIWGQGTMVTVSS
VL: QLVLTQSPSASASLGASVNLTCTLSSGHNSYAIAWHQQQPEKGPRYLMSLNSDGSHTKGDGIPDRFSGSSSGAERFLTISSLQSEDEADYYCQTWDTGIRVFGGGTRLTVL
For B2, the binding result is given as “binds”.

B3: C1704 IgG (antibody, V domains shown)
VH: QVQLVQSGAEVKKPGASVKVSCKVSGYTLTELSIHWVRQAPGKGLEWMGSFDPEDGETICAQKFQGRVTMTEDTSTDTAYMELSSLRSEDTAVYYCATEWRGCSDTSCQGTNWFDPWGQGTLVTVSS
VL: B2 VL with L2P, N19K, N29S, S30T, S49K, T57N, F76Y, D96G, I99V, R107K
In the case of B3, the binding result is “binds”.

B4: C1717 IgG (antibody, V domains shown)
VH: QVQLVQSGAEVKKPGSSVKVSCKTSGGTFNSFAINWVRQAPGQGPEWMGRVIPVLEIANYAQKFQGRITITADKSTSTAYMELSSLTSEDTAIYYCARHHIAVAQPYFDYWGQGTLVTVSS
VL: not shown
For B4, the binding result was “binds”.

B5: C1791 IgG (antibody, V domains shown)
VH: EVQLLESGGGLVQPGGSRRLSCAASGFTFSIAAMSWVRQAPGKGLEWVSVISTSGGTSYYADSVRGRFTISRDNSQNTLYLQMNSLSAEDTAIYYCAKDLGSYFPDYWGQGTLVTVSS
VL: DIQMTQSPSSLSASVGDRVTITCRASQGIRNDIGWYQQKPGKAPKRLIHAASSLQSGVPSRFSGSGSGTEFTLTISSLQPEDFATYYCLQYNSYPRVTFGPGTKVDIK
As to B5, the binding result was “binds”.

B6: C1621 IgG (antibody, V domains shown)
VH: EVQLVESGGGLVKPGGSLRLSCAASGFSFNNSNMNWVRQAPGKGLEWVSSISSSSNYIYYVDSVKGRFTISRDNAKNSLYLQMSSLRVEDTAVYYCASAQSSARWGGYYQYAMDVWGQGTTVTVSS
VL: EIVMTQSPATLSVSPGERATLSCRASQSVSSSLAWYQQKPGQAPRLLIYDASTRATGIPARFSGRGSGTEFTLTISSLQSEDFAVYYCQQYYNWPPWTFGQGTKVEI
B6: the binding result is reported as “binds”.

B7: C1557 IgG (antibody, V domains shown)
VH: QVQLVQSGAEVRKPGASVKVSCKVSGYTLTELSMHWVRQSPGKGLEWMGSFDPDDGETFYAQKFQGRITMSEDTSTDTAYMELSSLRSEDTAVYFCATDSNMIVVRGNYYYSGLDVWGQGTTVTVSS
VL: EIVMTQSPATLSVSPGERATLSCRASQSVAGNLAWYQQKPGLAPRLLIQGPSTRATGIPARFSGSGSGTEFTLTISSLQSEDFAVYYCHQYNNWPWTFGQGTKVEIK
In the case of B7, the binding result is “binds”.
